# B1: mouse monoclonal antibody 10B3 (antibody, mouse IgG2a, V domains shown)
# VH: EVQLQQSGPELVKPGASVKISCKASGYSFTGYFMHWVKQSHGNILDWIGNIYPYNGVSNYNQRFKAKATLTVDKSSSTAYMELRSLTSEDSAVYYCARRYYYGTGPADWYFDVWGTGTTVTVSS
# VL: DIKMTQSPSSMYASLRERVTITCKASQDINSYLSWFQQKPGKSPKTLIYRANRLVDGVPSRFSGSGSGQDYSLTISSLEYEDMGIYYCLQCDEFPLTFGAGTKLELK
# notes: Murine IgG2a/k; also called 10B3 mouse parental; parental 10B3
# Legend:
# [1] = biological target: T1, recombinant mature dimeric myostatin (human and mouse (mature sequences 100% …, UniProt O08689 268-376)); test: BIAcore T100 SPR, antibody captured on anti-mouse IgG, myostatin analyte, all curves Bivalent model
# T1 construct: also called GDF-8; mature myostatin
# T1 sequence: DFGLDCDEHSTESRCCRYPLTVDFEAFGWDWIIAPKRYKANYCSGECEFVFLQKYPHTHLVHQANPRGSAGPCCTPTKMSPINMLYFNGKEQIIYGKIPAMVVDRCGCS
# Protocol: (§1) The affinity of 10B3 mouse parental and 10B3C for recombinant myostatin was assessed by BIAcore™ (surface plasmon resonance) analysis. Analysis was carried out by the use of a capture surface: anti-mouse IgG was coupled to a C1 chip by primary amine coupling for 10B3 mouse parental; and a protein A surface was created on a C1 chip by primary amine coupling for 10B3 chimera.
# (§2) After capture, recombinant myostatin was passed over the surface at 64 nM, 16 nM, 4 nM, 1 nM, 0.25 nM and 0.0625 nM, with a buffer injection (i.e. 0 nM) used for double referencing. There was a regeneration step between each analyte injection, after which the new antibody capture event occurred before the next injection of myostatin. The data was analysed using both the 1:1 model and the Bivalent model inherent to the T100 machines analysis software (see Table 6). Both capture surfaces could be regenerated using 100 mM phosphoric acid, the work was carried out using HBS-EP as the running buffer and using 25° C. as the analysis temperature.
# [2] = biological target: T1, recombinant mature dimeric myostatin; test: ActRIIb receptor neutralisation ELISA: antibody pre-incubated with 2 nM biotinylated myostatin, binding to coated ActRIIb
# Protocol: (§3) Recombinant soluble ActRIIb (R&D Systems 339-RBB) was coated in wells of an ELISA plate at 1 μg/ml in carbonate buffer overnight at 4° C. Plates were blocked (see Block solution above at 2.3) and washed following standard ELISA protocols. In parallel, 2 nM biotinylated myostatin (in-house, as described in 1.1, biotinylated material) was pre-incubated with an antibody dilution series consisting of 10B3, 10B3C, and a negative control (IgG1 isotype control) for 2 hours at 37° C. The biotinylated myostatin:antibody reactions were then added to the ActRIIb coated plate for 1 hour at 37° C. Standard wash procedures were followed prior to addition of 1:1000 diluted streptavidin-HRP conjugate (Dako P0397) and a further 37° C. incubation for 1 hour. Plates were again washed and assayed at absorbance 490 nm following OPD substrate (Sigma) and acid stop solution treatment. Inhibition curves and IC50 values for the inhibition of myostatin activity are shown in FIG. 5 and Table 8 respectively.
# [3] = biological target: T1, recombinant mature dimeric myostatin; test: ActRIIb neutralisation ELISA: inhibition of 2 nM biotinylated myostatin binding to coated ActRIIb
# Summary of the method: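 Soluble ActRIIb coated at 1 μg/ml; 2 nM biotinylated myostatin pre-incubated 30 min at 37° C with antibody dilution series, then bound to plate 1 h at 37° C. Bound myostatin detected with streptavidin-HRP, absorbance at 490 nm after acid stop.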
# [4] = biological target: T1, recombinant mature dimeric myostatin; test: BIAcore T100 SPR, antibody captured on anti-mouse IgG, myostatin analyte, all curves 1:1 model
# Protocol: as §1, §2
# [5] = biological target: T1, recombinant mature dimeric myostatin; test: ActRIIb receptor binding assay: inhibition of biotinylated myostatin binding to coated ActRIIb
# Protocol: as §3
# [6] = biological target: T2, human myostatin pro-peptide dimer (human, UniProt O14793 25-266, limits assumed); test: ELISA, antigen coated at 100 ng/well
# T2 sequence: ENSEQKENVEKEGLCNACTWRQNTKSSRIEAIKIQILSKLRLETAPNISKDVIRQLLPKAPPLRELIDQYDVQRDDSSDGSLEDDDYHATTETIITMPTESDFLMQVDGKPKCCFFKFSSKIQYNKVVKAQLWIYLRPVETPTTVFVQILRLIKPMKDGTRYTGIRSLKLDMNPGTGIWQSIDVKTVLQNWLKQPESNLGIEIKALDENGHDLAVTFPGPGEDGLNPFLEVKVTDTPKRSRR
# Protocol: The myostatin antigens were coated onto wells of an EIA/RIA plate (Costar) at 100 ng/well at 4° C. overnight in PBS, prior to blocking (PBS, 3% BSA) for 30 minutes at room temperature. Plates were washed (PBS, 1% BSA and 0.1% Tween20), prior to the addition of a dilution series of 10B3 in wash buffer and incubation for 2 hours at room temperature. Plates were again washed prior to addition of peroxidase-conjugated Affinipure F(ab′)2 fragment donkey anti-mouse IgG (Jackson Laboratories cat 715-036-151) diluted 1:10,000 in wash buffer and incubated for 1 hour at room temperature. A final wash step preceded addition of TMB substrate and colorimetric change which was stopped with Sulphuric acid and plates read at 450 nm.
# [7] = biological target: T1, recombinant mature dimeric myostatin; test: cell-based or functional assay
binder,measurement,setting,value
B1,Kd,[1],5.9 nM
same,IC50,[2],0.132 µg/mL
same,IC50,[3],0.172 nM
same,Kd,[4],1 nM
same,IC50,[5],0.161 nM
same,binding result,[6],no binding
same,"IC50, myostatin responsive reporter gene assay (A204 cells, luciferase)",[7],10 nM
